Measured values: patent US20170183413A1 (CELLECTIS, published 2017)

T1: CD123-Fc protein (fusion of the extracellular domain of the human CD123 protein with a murine IgG1 Fc … (human; mouse, UniProt P26951 19-305)
T1 construct: extracellular domain; also called fusion protein; not shown: murine IgG1 Fc fragment
T1 sequence (looked up): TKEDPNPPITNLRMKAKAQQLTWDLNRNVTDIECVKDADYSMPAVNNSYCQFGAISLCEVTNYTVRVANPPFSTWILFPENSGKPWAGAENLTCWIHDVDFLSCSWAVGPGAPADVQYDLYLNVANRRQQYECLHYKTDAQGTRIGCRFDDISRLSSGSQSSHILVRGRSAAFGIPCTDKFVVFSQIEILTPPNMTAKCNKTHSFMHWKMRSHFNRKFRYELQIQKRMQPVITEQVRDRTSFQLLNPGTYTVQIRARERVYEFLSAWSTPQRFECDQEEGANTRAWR

B1: Klon43-v3 CAR (Klo43-3, anti-CD123 chimeric antigen receptor, structure V-3: Klon43 scFv, CD8alpha hinge, CD8alpha transmembrane domain, 41BB intracellular … (other)
chain: EVKLVESGGGLVQPGGSLSLSCAASGFTFTDYYMSWVRQPPGKALEWLALIRSKADGYTTEYSASVKGRFTLSRDDSQSILYLQMNALRPEDSATYYCARDAAYYSYYSPEGAMDYWGQGTSVTVSSGGGGSGGGGSGGGGSMADYKDIVMTQSHKFMSTSVGDRVNITCKASQNVDSAVAWYQQKPGQSPKALIYSASYRYSGVPDRFTGRGSGTDFTLTISSVQAEDLAVYYCQQYYSTPWTFGGGTKLEIKRTTTPAPRPPTPAPTIASQPLSLRPEACRPAAGGAVHTRGLDFACDIYIWAPLAGTCGVLLLSLVITLYCKRGRKKLLYIFKQPFMRPVQTTQEEDGCSCRFPEEEEGGCELRVKFSRSADAPAYQQGQNQLYNELNLGRREEYDVLDKRRGRDPEMGGKPRRKNPQEGLYNELQKDKMAEAYSEIGMKGERRRGKGHDGLYQGLSTATKDTYDALHMQALPPR
notes: Chimeric antigen receptor on the surface of human T cells (mRNA transfection or lentiviral transduction); 44; In the lentiviral vector the CAR is coupled to BFP through a 2A peptide; also called CAR Klon 43 V3; Klon43 CAR
B2: 32716-v3 CAR (32716-3, anti-CD123 chimeric antigen receptor, structure V-3: 32716 scFv, CD8alpha hinge, CD8alpha transmembrane domain, 41BB intracellular … (other)
chain: QIQLVQSGPELKKPGETVKISCKASGYIFTNYGMNWVKQAPGKSFKWMGWINTYTGESTYSADFKGRFAFSLETSASTAYLHINDLKNEDTATYFCARSGGYDPMDYWGQGTSVTVSSGGGGSGGGGSGGGGSDIVLTQSPASLAVSLGQRATISCRASESVDNYGNTFMHWYQQKPGQPPKLLIYRASNLESGIPARFSGSGSRTDFTLTINPVEADDVATYYCQQSNEDPPTFGAGTKLELKTTTPAPRPPTPAPTIASQPLSLRPEACRPAAGGAVHTRGLDFACDIYIWAPLAGTCGVLLLSLVITLYCKRGRKKLLYIFKQPFMRPVQTTQEEDGCSCRFPEEEEGGCELRVKFSRSADAPAYQQGQNQLYNELNLGRREEYDVLDKRRGRDPEMGGKPRRKNPQEGLYNELQKDKMAEAYSEIGMKGERRRGKGHDGLYQGLSTATKDTYDALHMQALPPR
notes: Chimeric antigen receptor on the surface of human T cells; 38; In the lentiviral vector the CAR is coupled to BFP through a 2A peptide; also called CAR 32716V3

Target: T1, CD123-Fc protein (fusion of the …)
Experiment: flow cytometry on transduced T-cells, CD123-Fc fusion protein detected with PE-conjugated anti-mouse Fc
Experimental: Transduction of T-cells with recombinant lentiviral vectors expression the CAR was carried out three days after T-cell purification/activation. Lentiviral vectors were produced by Vectalys SA (Toulouse, France) by transfection of genomic and helper plasmids in HEK-293 cells. Transductions were carried out at a multiplicity of infection of 5, using 10⁶ cells per transduction. CAR detection at the surface of T-cells was done using a recombinant protein consisting on the fusion of the extracellular domain of the human CD123 protein together with a murine IgG1 Fc fragment (produced by LakePharma). Binding of this protein to the CAR molecule was detected with a PE-conjugated secondary antibody (Jackson Immunoresearch) targeting the mouse Fc portion of the protein, and analyzed by flow cytometry. […]
CAR detection was done using a fusion protein in which the extracellular domain of the human CD123 protein was fused to a mouse IgG1 derived Fc fragment. Binding of the CAR at the cell surface with the CD123 portion of the fusion protein was detected with anti-Fc PE-conjugated antibody and analyzed by flow cytometry. FIG. 9 represents the % of CAR+ or of Blue fluorescent protein (BFP+) cells (measured by FACS analysis) at Day 8 or 10 post transduction for two different donors.

Binder | binding result
B1 | binds
B2 | binds
